Source: paper PMC9536601, “Binding of adenovirus species C hexon to prothrombin and the influence of hexon on vector properties in vitro and in vivo” (PLoS Pathogens, 2022)
Positions count from the first letter of the chain named.

B1: hexon of Ad5.5 (Ad5 vector, hexon HVR7 VINTDTL), on the virion (natural protein, human adenovirus type 5)
chain: ATPSMMPQWSYMHISGQDASEYLSPGLVQFARATETYFSLNNKFRNPTVAPTHDVTTDRSQRLTLRFIPVDREDTAYSYKARFTLAVGDNRVLDMASTYFDIRGVLDRGPTFKPYSGTAYNALAPKGAPNPCEWDEAATALEINLEEEDDDNEDEVDEQAEQQKTHVFGQAPYSGINITKEGIQIGVEGQTPKYADKTFQPEPQIGESQWYETEINHAAGRVLKKTTPMKPCYGSYAKPTNENGGQGILVKQQNGKLESQVEMQFFSTTEATAGNGDNLTPKVVLYSEDVDIETPDTHISYMPTIKEGNSRELMGQQSMPNRPNYIAFRDNFIGLMYYNSTGNMGVLAGQASQLNAVVDLQDRNTELSYQLLLDSIGDRTRYFSMWNQAVDSYDPDVRIIENHGTEDELPNYCFPLGGVINTDTLTKVKPKTGQENGWEKDATEFSDKNEIRVGNNFAMEINLNANLWRNFLYSNIALYLPDKLKYSPSNVKISDNPNTYDYMNKRVVAPGLVDCYINLGARWSLDYMDNVNPFNHHRNAGLRYRSMLLGNGRYVPFHIQVPQKFFAIKNLLLLPGSYTYEWNFRKDVNMVLQSSLGNDLRVDGASIKFDSICLYATFFPMAHNTASTLEAMLRNDTNDQSFNDYLSAANMLYPIPANATNVPISIPSRNWAAFRGWAFTRLKTKETPSLGSGYDPYYTYSGSIPYLDGTFYLNHTFKKVAITFDSSVSWPGNDRLLTPNEFEIKRSVDGEGYNVAQCNMTKDWFLVQMLANYNIGYQGFYIPESYKDRMYSFFRNFQPMSRQVVDDTKYKDYQQVGILHQHNNSGFVGYLAPTMREGQAYPANFPYPLIGKTAVDSITQKKFLCDRTLWRIPFSSNFMSMGALTDLGQNLLYANSAHALDMTFEVDPMDEPTLLYVLFEVFDVVRVHRPHRGVIETVYLRTPFSAGNATT
notes: hexon of human adenovirus type 5, whole as in the capsid of the virion; HVR7 segment changed; The whole virion was immobilised; source: 293 cells, virions purified by CsCl ultracentrifugation
B2: hexon of Ad5.6 (Ad5 vector, hexon HVR7 VIRTDTL), on the virion (natural protein, human adenovirus type 5)
chain: B1 chain with N421R
notes: as for B1
B3: hexon of Ad5.0 (E1/E3-deleted Ad5 vector with wild-type Ad5 capsid), on the virion (natural protein, human adenovirus type 5)
chain: B1 chain with D423E
notes: hexon of human adenovirus type 5, whole as in the capsid of the virion; HVR7 segment VINTETL; The whole virion was immobilised; The other capsid proteins are not written; also called VINTETL; source: 293 cells, virions purified by CsCl ultracentrifugation
B4: hexon of Ad5.4 (Ad5 vector, hexon HVR7 VINTATL), on the virion (natural protein, human adenovirus type 5)
chain: B1 chain with D423A
notes: as for B1
B5: hexon of wild-type human adenovirus type 2 (on virions) (natural protein)
chain: MATPSMMPQWSYMHISGQDASEYLSPGLVQFARATETYFSLNNKFRNPTVAPTHDVTTDRSQRLTLRFIPVDREDTAYSYKARFTLAVGDNRVLDMASTYFDIRGVLDRGPTFKPYSGTAYNALAPKGAPNSCEWEQTEDSGRAVAEDEEEEDEDEEEEEEEQNARDQATKKTHVYAQAPLSGETITKSGLQIGSDNAETQAKPVYADPSYQPEPQIGESQWNEADANAAGGRVLKKTTPMKPCYGSYARPTNPFGGQSVLVPDEKGVPLPKVDLQFFSNTTSLNDRQGNATKPKVVLYSEDVNMETPDTHLSYKPGKGDENSKAMLGQQSMPNRPNYIAFRDNFIGLMYYNSTGNMGVLAGQASQLNAVVDLQDRNTELSYQLLLDSIGDRTRYFSMWNQAVDSYDPDVRIIENHGTEDELPNYCFPLGGIGVTDTYQAIKANGNGSGDNGDTTWTKDETFATRNEIGVGNNFAMEINLNANLWRNFLYSNIALYLPDKLKYNPTNVEISDNPNTYDYMNKRVVAPGLVDCYINLGARWSLDYMDNVNPFNHHRNAGLRYRSMLLGNGRYVPFHIQVPQKFFAIKNLLLLPGSYTYEWNFRKDVNMVLQSSLGNDLRVDGASIKFDSICLYATFFPMAHNTASTLEAMLRNDTNDQSFNDYLSAANMLYPIPANATNVPISIPSRNWAAFRGWAFTRLKTKETPSLGSGYDPYYTYSGSIPYLDGTFYLNHTFKKVAITFDSSVSWPGNDRLLTPNEFEIKRSVDGEGYNVAQCNMTKDWFLVQMLANYNIGYQGFYIPESYKDRMYSFFRNFQPMSRQVVDDTKYKEYQQVGILHQHNNSGFVGYLAPTMREGQAYPANVPYPLIGKTAVDSITQKKFLCDRTLWRIPFSSNFMSMGALTDLGQNLLYANSAHALDMTFEVDPMDEPTLLYVLFEVFDVVRVHQPHRGVIETVYLRTPFSAGNATT
notes: hexon of human adenovirus type 2 (species C), whole hexon as it stands in the capsid of the virion; Immobilised as whole virions; also called Ad2; source: wild-type virus from ATCC, grown on 293 cells, virions purified by CsCl ultracentrifugation
B6: mouse coagulation factor X (natural protein)
chain: ANSFFEEFKKGNLERECMEEICSYEEVREIFEDDEKTKEYWTKYKDGDQCESSPCQNQGACRDGIGGYTCTCSEGFEGKNCELFVRKLCRLDNGDCDQFCREEQNSVVCSCASGYFLGNDGKSCISTAPFPCGKITTGRRKRSVALNTSDSELDLEDALLDEDFLSPTENPIELLNLNETQPERSSDDLVRIVGGRECKDGECPWQALLINEDNEGFCGGTILNEFYILTAAHCLHQARRFKVRVGDRNTEKEEGNEMVHEVDVVIKHNKFQRDTYDYDIAVLRLKTPITFRMNVAPACLPQKDWAESTLMTQKTGIVSGFGRTHEKGRQSNILKMLEVPYVDRNTCKLSTSFSITQNMFCAGYEAKLEDACQGDSGGPHVTRFKNTYYVTGIVSWGEGCARKGKYGIYTKVTTFLKWIDRSMKARVGPTAETPRTAGPPN
modifications: gamma-carboxylated glutamate residues in the Gla domain
notes: coagulation factor X, mouse, plasma-derived; Pretreated with 125 uM GGACK (EGRCK); written here as one entry; also called mouse FX; source: bought: Haematologic Technologies, Inc. (MCX-5050), plasma-derived
B7: mouse prothrombin (coagulation factor II) (natural protein)
chain: not shown
modifications: gamma-carboxylated glutamate residues in the Gla domain
notes: prothrombin (FII), mouse, plasma-derived; also called mouse FII
B8: bovine coagulation factor X (natural protein)
chain: ANSFLEEVKQGNLERECLEEACSLEEAREVFEDAEQTDEFWSKYKDGDQCEGHPCLNQGHCKDGIGDYTCTCAEGFEGKNCEFSTREICSLDNGGCDQFCREERSEVRCSCAHGYVLGDDSKSCVSTERFPCGKFTQGRSRRWAIHTSEDALDASELEHYDPADLSPTESSLDLLGLNRTEPSAGEDGSQVVRIVGGRDCAEGECPWQALLVNEENEGFCGGTILNEFYVLTAAHCLHQAKRFTVRVGDRNTEQEEGNEMAHEVEMTVKHSRFVKETYDFDIAVLRLKTPIRFRRNVAPACLPEKDWAEATLMTQKTGIVSGFGRTHEKGRLSSTLKMLEVPYVDRSTCKLSSSFTITPNMFCAGYDTQPEDACQGDSGGPHVTRFKDTYFVTGIVSWGEGCARKGKFGVYTKVSNFLKWIDKIMKARAGAAGSRGHSEAPATWTVPPPLPL
modifications: gamma-carboxylated glutamate residues in the Gla domain
notes: coagulation factor X, bovine, plasma-derived; Pretreated with 125 uM GGACK (EGRCK); written here as one entry; also called bovine FX; source: bought: Haematologic Technologies, Inc. (BCX-1050), plasma-derived
B9: bovine prothrombin (coagulation factor II) (natural protein)
chain: not shown
modifications: gamma-carboxylated glutamate residues in the Gla domain
notes: prothrombin (FII), bovine, plasma-derived; also called bovine FII; source: bought: Haematologic Technologies, Inc. (BCP-1010), plasma-derived
B10: hexon of wild-type human adenovirus type 5 (on virions) (natural protein)
chain: B1 chain with D423E
notes: hexon of human adenovirus type 5 (species C), whole hexon as it stands in the capsid of the virion; Immobilised as whole virions; also called Ad5; source: wild-type virus from ATCC, grown on 293 cells, virions purified by CsCl ultracentrifugation

Assays:
Conditions in all cases: both partners purified
[1] = target: T1, human prothrombin (coagulation factor II) (human, UniProt P00734 44-622, γ-carboxylated glutamate residues in the Gla domain (positions not given)); experiment: SPR; Biacore T200; about 300 to 5,000 RU of Ad virions immobilised on a CM5 chip, coagulation factors flowed over at four concentrations, 50 uL/min; 10 mM HEPES, 150 mM NaCl, 1 mM CaCl2, 0.5 mM MgCl2, 0.1% BSA, 0.05% polysorbate 20, pH 7.4; global fit to a 1:1 kinetic interaction model, double referencing
T1 construct: prothrombin (FII), human, plasma-derived; also called Human FII; FII; source: bought: Haematologic Technologies, Inc. (HCP-0010), plasma-derived; dialyzed

[2] = target: T2, human prothrombin (coagulation factor II) (human, UniProt P00734 44-622, gamma-carboxylated glutamate residues in the Gla domain); experiment: SPR; Biacore T200; about 300 to 5,000 RU of Ad virions immobilised on a CM5 chip, coagulation factors flowed over at four concentrations, 50 uL/min; running buffer 10 mM HEPES, 150 mM NaCl, 1 mM CaCl2, 0.5 mM MgCl2, 0.1% BSA, 0.05% polysorbate 20, pH 7.4; regeneration with 3 mM EDTA; global fit to a 1:1 kinetic interaction model, double referencing
T2 construct: prothrombin (FII), human, plasma-derived; also called human FII; FII; source: bought: Haematologic Technologies, Inc. (HCP-0010), plasma-derived

[3] = target: B5; experiment: as above
[4] = target: B10; experiment: as above
[5] = target: T3, hexon of the E1/E3-deleted Ad5 vector Ad5.0 (wild-type Ad5 capsid, on virions) (human adenovirus 5, UniProt P04133 2-952); experiment: as above
T3 construct: hexon of human adenovirus type 5, unchanged, as it stands in the capsid of the vector; Immobilised as whole vector virions; source: E1/E3-deleted Ad5 vector grown on 293 cells, virions purified by CsCl ultracentrifugation

| Binder | Kd [1] | koff [3] | kon [3] | koff [4] | kon [4] | Kd [5] | koff [5] | kon [5] | other results |
| --- | --- | --- | --- | --- | --- | --- | --- | --- | --- |
| B1 | 233 nM |  |  |  |  |  |  |  |  |
| B2 | 130 nM |  |  |  |  |  |  |  |  |
| B3 | 35 nM |  |  |  |  |  |  |  |  |
| B4 | 266 nM |  |  |  |  |  |  |  |  |
| B5 |  |  |  |  |  |  |  |  | Kd [2]: 4.5 nM; koff [2]: 0.000393 s⁻¹; kon [2]: 87400 M⁻¹ s⁻¹ |
| B6 |  | 0.00018 s⁻¹ | 238000 M⁻¹ s⁻¹ | 8.4e-05 s⁻¹ | 242000 M⁻¹ s⁻¹ | 0.32 nM | 8.61e-05 s⁻¹ | 266000 M⁻¹ s⁻¹ |  |
| B7 |  | 0.000393 s⁻¹ | 69700 M⁻¹ s⁻¹ | 0.0518 s⁻¹ | 24500 M⁻¹ s⁻¹ | 2000 nM | 0.0361 s⁻¹ | 18000 M⁻¹ s⁻¹ | Kd [3]: 5.6 nM; Kd [4]: 2100 nM |
| B8 |  | 0.0142 s⁻¹ | 194000 M⁻¹ s⁻¹ | 0.115 s⁻¹ | 410000 M⁻¹ s⁻¹ | 270 nM | 0.0711 s⁻¹ | 262000 M⁻¹ s⁻¹ | Kd [4]: 280 nM |
| B9 |  | 0.00531 s⁻¹ | 37800 M⁻¹ s⁻¹ |  |  |  |  |  | Kd [3]: 140 nM |
| B10 |  |  |  |  |  |  |  |  | Kd [2]: 39 nM; koff [2]: 0.00321 s⁻¹; kon [2]: 83500 M⁻¹ s⁻¹ |
